Earlier results in publication PMC9280966 (ACS Omega, 2022).

Target: RHEB (Homo sapiens, UniProt Q15382)
Conditions: read-out: KD with RHEB (BLI); BLI analysis, earlier study; ref [12]

Chain of RHEB (Q15382 whole entry): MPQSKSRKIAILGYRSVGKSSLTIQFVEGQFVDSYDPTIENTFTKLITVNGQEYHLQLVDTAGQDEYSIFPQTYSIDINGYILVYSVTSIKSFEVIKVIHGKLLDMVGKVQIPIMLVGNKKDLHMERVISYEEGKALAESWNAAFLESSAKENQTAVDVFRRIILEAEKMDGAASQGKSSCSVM

Kd: ~6.5 µM
Substance: mTOR^ΔN: N-heat domain of mTOR (aa 60–167), 6xHis tagged, ∼13 kDa
